# Experimental data as given in article PMC9270183 (The Journal of Experimental Medicine, 2022).
# Biological target: T1, 417N/484K/501Y RBD mutant (SARS-CoV-2, Wuhan-Hu-1 RBD backbone …, 417N | 484K | 501Y)
# T1 construct: also called RBD KEN
# Assay: BLI
# Conditions: both partners purified
row,Binder,Kd [nM]
1,"V025 (antibody, V domains shown, IgG; donor BRA13; source: recombinant monoclonal IgG, produced and purified as previously described) VH: QVQLVQSGAEVKKPGASVKVSCKASGYTFTSYGISWVRQAPGQGLEWMGWISVYNGKTNYAQKLQGRVTMTTDTSTSTAYMELRSLISDDTAVYYCARADRYNWDYGSSWGQGTLVTVSS VL: not shown",2.84
2,"V017 (antibody, V domains shown, IgG; donor BRA13; source: recombinant monoclonal IgG, produced and purified as previously described) VH: EVQLVESGGGLVQPGGSLRLSCVASGFTFSTYSMNWVRQAPGKGLEWVSYISSSSSTIYYADSVKGRFTISRDNAKSSLYLQMNSLRAEDTAVYYCASGLCGGDCPLTCWGQGTLVTVSS VL: not shown",27.1
3,"V024 (antibody, V domains shown, IgG; donor BRA13) VH: QVQLVESGGGVVQPGRSLRLSCAASGFTFSSYGMHWVRQAPGKGLEWVAVISYDGSNKYYADSVKGRFTISRDNSKNTLYLQMNSLRGEDTAVYYCAKAGYGYSYGYGQIDYWGQGTLVTVSS VL: not shown",33.2
4,"V021 (antibody, V domains shown, IgG; donor BRA13) VH: QVQLQESGPGLVKPSQTLSLTCTVSGGSISSGSYYWSWIRQPVGKGLEWIGRIYTSGSTNYNPSLKSRVTISVDTSKNQFSLELSSVTAADRAVYYCARESSPASIPVRGVIWWFDPWGQGTLVTVSS VL: not shown",32.6
5,"V019 (antibody, V domains shown, IgG; donor BRA13; source: recombinant monoclonal IgG, produced and purified as previously described) VH: QVQLVQSGAEVKKPGSSVKVSCKASGGTFSTYTFSWVRQAPGQGLEWMGRIIPILGIANYAQKFQGRITITADKSTSTAYMELSSLRSEDTAVYYCAWGSYSYGYFVDIWGQGTMVTVSS VL: DIVMTQTLLSLSVTPGQPASISCKSSQSLLHSDGKTYLYWYLQKPGQSPQLLIYEVSSRFSGVPDRFSGSGSGTDFTLKISRVEAEDVGVYYCMQGIQFHWTFGQGTKLEIK",3.31
6,"V002 (antibody, V domains shown, IgG; donor BRA13; source: recombinant monoclonal IgG, produced and purified as previously described) VH: EVQLVESGGGLVQPGRSLRLSCAASGFTFDEYAMHWVRQAPGKGLEWVSGSSWNSGTIGYADSVKGRFTISRDNAKNSLYLQMNSLRAEDTALYYCAKSQGDYGGNSGAGYFQHWGQGTLVTVSS VL: SYELTQPPSVSVAPGKTARITCGGNNIGSKSVHWYQQKPGQAPMLVVYDDSDRPSGIPERFSGSNSGNTATLTISRVEAGDEADYYCQVWDSSSEVYVFGTGTKVTVL",979
7,"V027 (antibody, V domains shown, IgG; donor BRA14; source: recombinant monoclonal IgG, produced and purified as previously described) VH: not shown VL: NFMLTQPHSVSESPGKTVTISCTRSSGSIASNYVQWYQQRPGSAPTTVIYEDNQRPSGVPDRFSGSIDSSSNSASLTISGLKTEDEADYYCQSYDSSNHRVFGGGTKLTVL",37.3
8,"V028 (antibody, V domains shown, IgG; donor BRA14; source: recombinant monoclonal IgG, produced and purified as previously described) VH: QVQLVESGGGVVQPGRSLRLSCAASGFTFSSYGMHWVRQAPGKGLEWVAVVSFDGSDKYYADSVKGRFTISRDNSKNTLYLQMNSLRAEDTALYYCAKGGYSYAYPRYYFDYWGQGTLVTVSS VL: DIQMTQSPSSLSASVGDRVTITCQASQDISNYLNWYQQKPGKAPKLLIYDASNLETGVPSRFSGSGSGTDFTFTISSLQPEDIATYYCQQHDNLPITFGQGTRLEIK",44.6
9,"V031 (antibody, V domains shown, IgG; donor BRA14; source: recombinant monoclonal IgG, produced and purified as previously described) VH: QVQLVESGGGVVQPGRSLRLSCAASGFTFSSYGMHWVRQAPGKGLEWVAVISYDGSNKYYADSVKGRFAFSRDNSKNTLYLQMNSLRAEDTAVYYCAKGGYSYAYPRYYFDYWGQGTLVTVSS VL: DIQMTQSPSSLSASVGDRVTITCQASQDISNYLNWYQQKPGKAPKLLIYDASNLETGVPSRFSGSGSGTDFTFTISSLQPEDIATYYCQQHDNLPITFGQGTRLEIK",14.5
10,"V022 (antibody, V domains shown, IgG; donor BRA13; source: recombinant monoclonal IgG, produced and purified as previously described) VH: EVQLVESGGGLVKPGGSLRLSCAASGFTFSSYSMNWVRQAPGKGLEWVSSISSTNNYIYNADSVKGRFTISRDNAKNSLYLQMNSLRAEDTAVYYCARDPAGRYSYGLYYFYYMDVWGKGTTVTVSS VL: QSALTQPASVSGSPGQSITISCTGTSSDVGGYNYVSWYQQRPGKAPKLMIYDVSNRPSGVSDRFSGSKSGNTASLTISGLQAEDEADYYCTSYTSSSSLYVFGTGTKVTVL",5.71
11,"V020 (antibody, V domains shown, IgG; donor BRA13; source: recombinant monoclonal IgG, produced and purified as previously described) VH: QVQLVESGGGVVQPGRSLRLSCAASGFTFSSYGMHWVRQAPGKGLEWVAVISYDGSNKYYADSVKGRFTISRDNSKNTLYLQMNSLRAEDTAVYYCAKGGWFGELLRYFDYWGQGTLVTVSS VL: not shown",94.8
12,"V026 (antibody, V domains shown, IgG; donor BRA13; source: recombinant monoclonal IgG, produced and purified as previously described) VH: QVQLVESGGGVVQPGRSLRLSCAVSGFTFSSYGMHWVRQAPGKGLEWVAVISYEGSNKYYADSVKGRFTISRDNSKNTLYLQMNSLRAEDTAVYYCAKGGWYGSPTYYFDYWGQGTLVTVSS VL: not shown",11.9
